Experimental data as given in patent US20230272086A1 (CHIA TAI TIANQING PHARMACEUTICAL GROUP, published 2023).
Substitutions are numbered along the chain they refer to. Blank lines part the entries; values can stand above or below the binder they belong to.

Legend:
Assay in all cases: ELISA, plate coated with 2 µg/mL receptor
[1] = molecular target: T1, IL1R2/CD121b (Sino biological, 10111-H08H) (UniProt P27930 14-343)
T1 construct: Bought protein
T1 sequence (looked up): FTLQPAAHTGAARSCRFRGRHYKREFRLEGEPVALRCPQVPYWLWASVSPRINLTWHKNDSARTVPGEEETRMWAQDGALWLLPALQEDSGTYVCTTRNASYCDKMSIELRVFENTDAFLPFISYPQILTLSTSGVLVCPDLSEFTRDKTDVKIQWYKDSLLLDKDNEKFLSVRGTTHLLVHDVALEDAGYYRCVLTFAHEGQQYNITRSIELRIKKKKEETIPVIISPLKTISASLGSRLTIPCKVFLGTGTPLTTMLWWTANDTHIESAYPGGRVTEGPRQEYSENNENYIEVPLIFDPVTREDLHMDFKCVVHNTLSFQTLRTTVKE
Experimental: (§1) The anti-ST2 antibodies were diluted with PBS buffer to a concentration of 1.5 mg/mL. After being treated at 72° C. for 5 min, the samples were assayed by ELISA for their binding activity for an antigen The ELISA procedure is as follows: A 96-well plate was coated with 2 µg/mL hST2-ECD-mFc as the antigen at 100 µL/well and incubated at 4° C. overnight. After the antigen not adsorbed was well washed off, the non-specific binding sites were blocked with a blocking buffer (PBST containing 1% bovine serum albumin). After the plate was washed three times with a washing buffer (PBST, PBS containing 0.05% (v/v) Tween 20), the anti-ST2 antibodies (serially diluted 3-fold from an initial concentration of 1.5 µg/mL to 8 concentrations) were added at 100 µL/well, and the plate was incubated at 37° C. for 1 h. […] After the plate was incubated at room temperature for 5 min, a stop solution (2 N H₂SO₄) was added to stop the reactions. The signals were read at 450 nm using a plate reader (PE, Envision). The data were analyzed using GraphPad Prism5, and the EC₅₀ values were calculated.
(§2) ST2 belongs to the IL1R receptor family. The cross-reactivity of the anti-ST2 antibodies with the IL1R family receptors was determined by ELISA. The IL1R family receptors include IL1R⅟CD121a (Sino biological, 10126-H08H), IL1R2/CD121b (Sino biological, 10111-H08H), IL1R3/IL1RAP (Sino biological, 10121-H08H), IL1R7/IL-18RAcP (Sino biological, 10176-H08H), IL1R8/IL1RAPL1 (Sino biological, 10177-H08H), and IL1R9/IL1RAPL2 (Sino biological, 10156-H08H). ELISA assays were performed using the proteins described above as antigens (2 µg/mL). See Example 13 for the specific ELISA procedure. No binding means that the antibody remains unbound to the antigen when at the highest concentration.

[2] = molecular target: T2, IL1R3/IL1RAP (Sino biological, 10121-H08H) (UniProt Q9NPH3 21-359)
T2 construct: Bought protein
T2 sequence (looked up): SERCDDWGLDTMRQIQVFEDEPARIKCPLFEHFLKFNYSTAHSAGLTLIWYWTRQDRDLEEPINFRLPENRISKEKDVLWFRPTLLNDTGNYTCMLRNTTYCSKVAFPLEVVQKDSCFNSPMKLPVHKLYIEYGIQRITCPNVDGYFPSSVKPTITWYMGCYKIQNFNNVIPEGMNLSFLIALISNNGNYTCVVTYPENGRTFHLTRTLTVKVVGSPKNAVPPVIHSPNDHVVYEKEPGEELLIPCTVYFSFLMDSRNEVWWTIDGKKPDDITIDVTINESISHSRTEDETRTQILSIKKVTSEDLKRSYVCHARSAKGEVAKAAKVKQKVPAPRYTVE
Experimental: as §1, §2

[3] = molecular target: T3, IL1R7/IL-18RAcP (Sino biological, 10176-H08H) (UniProt O95256 20-356)
T3 construct: Bought protein
T3 sequence (looked up): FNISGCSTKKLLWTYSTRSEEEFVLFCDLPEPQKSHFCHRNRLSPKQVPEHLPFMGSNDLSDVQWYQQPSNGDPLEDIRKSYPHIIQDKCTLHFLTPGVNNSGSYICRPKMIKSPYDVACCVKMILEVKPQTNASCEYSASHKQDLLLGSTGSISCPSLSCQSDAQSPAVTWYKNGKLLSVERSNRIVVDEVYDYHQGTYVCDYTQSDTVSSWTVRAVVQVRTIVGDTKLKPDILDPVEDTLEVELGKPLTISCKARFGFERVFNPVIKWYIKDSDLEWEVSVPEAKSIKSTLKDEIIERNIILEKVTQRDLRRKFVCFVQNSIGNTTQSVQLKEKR
Experimental: as §1, §2

[4] = molecular target: T4, IL1R8/IL1RAPL1 (Sino biological, 10177-H08H) (UniProt Q9NZN1 19-357)
T4 construct: Bought protein
T4 sequence (looked up): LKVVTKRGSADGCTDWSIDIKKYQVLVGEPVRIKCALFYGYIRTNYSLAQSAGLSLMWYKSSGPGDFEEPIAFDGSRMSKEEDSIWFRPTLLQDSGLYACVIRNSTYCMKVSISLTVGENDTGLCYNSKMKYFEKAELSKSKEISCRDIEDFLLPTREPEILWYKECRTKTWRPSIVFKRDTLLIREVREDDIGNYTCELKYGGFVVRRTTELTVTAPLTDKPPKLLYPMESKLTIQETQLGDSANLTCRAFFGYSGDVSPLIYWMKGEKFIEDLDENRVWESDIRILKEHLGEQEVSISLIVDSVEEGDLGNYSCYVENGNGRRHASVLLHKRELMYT
Experimental: as §1, §2

[5] = molecular target: T5, IL1R9/IL1RAPL2 (Sino biological, 10156-H08H) (UniProt Q9NP60 17-354)
T5 construct: Bought protein
T5 sequence (looked up): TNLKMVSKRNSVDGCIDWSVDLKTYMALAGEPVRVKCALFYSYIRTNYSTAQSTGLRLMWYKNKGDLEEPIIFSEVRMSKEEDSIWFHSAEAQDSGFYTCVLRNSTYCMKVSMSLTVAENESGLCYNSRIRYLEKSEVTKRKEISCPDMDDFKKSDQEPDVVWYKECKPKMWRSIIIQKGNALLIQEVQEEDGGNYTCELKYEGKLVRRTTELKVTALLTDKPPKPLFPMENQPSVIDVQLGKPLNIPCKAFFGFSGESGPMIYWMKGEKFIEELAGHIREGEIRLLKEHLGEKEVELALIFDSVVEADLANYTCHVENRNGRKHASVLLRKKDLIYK
Experimental: as §1, §2

binding result [1]: no binding
binding result [2]: no binding
binding result [3]: no binding
binding result [4]: no binding
binding result [5]: no binding
B1: Chimeric 31C8 (antibody, human IgG2, kappa, V domains shown)
VH: QVQLQQSGPELVRPGASVTLSCKASGYIFIDSEMHWVKQTPVHGLEWIGAIDPETGDTVYNQKFKGKATLTADKSSSTASMELSSLTSEDSAVYYCTGSTTDYYFAYWGQGTTLTVSS
VL: DIVMTQAAFSNPVTLGTSASISCRSSKSLLHSNGIIYLYWYLQKPGQSPQLLIYQMSNLASGVPDRFSSSGSGTDFTLRISRVEAEDVGVYYCAQNLELPFTFGSGTKLEIKR
notes: also called xi31C8

binding result [1]: no binding
binding result [2]: no binding
binding result [3]: no binding
binding result [4]: no binding
binding result [5]: no binding
B2: Humanized 31C8-1.1 (antibody, human IgG2, kappa, V domains shown)
VH: EVQLVQSGAEVKKPGATVKISCKASGYIFIDSEMHWVQQAPGKGLEWMGAIDPETGDTVYAEKFQGRVTITADKSSSTAYMELSSLRSEDTAVYYCTGSTTDYYFAYWGQGTLVTVSS
VL: DIQMTQSPSSLSASVGDRVTITCRSSKSLLHSNGIIYLYWYQQKPGKAPKLLIYQLSNLASGVPSRFSSSGSGTDFTLTISSLQPEDFATYYCAQNLELPFTFGQGTKVEIKR
notes: also called hz31C8-1.1; hz31C81-1.1

binding result [1]: no binding
binding result [2]: no binding
binding result [3]: no binding
binding result [4]: no binding
binding result [5]: no binding
B3: Humanized 31C8-1.2 (antibody, human IgG2, kappa, V domains shown)
VH: B2 VH with E1Q, E10K, E62K, Q65K
VL: B2 VL
notes: also called hz31C8-1.2; hz31C81-1.2

binding result [1]: no binding
binding result [2]: no binding
binding result [3]: no binding
binding result [4]: no binding
binding result [5]: no binding
B4: RG6149 (antibody Ab2 in CN104334582, prepared in-house) (antibody, human IgG2, kappa, V domains shown)
VH: EVQLVQSGAEVKKPGESLKISCKGSGYSFTNYWIGWVRQMPGKGLEWMGIIYPGNSDTRFSPSFQGQVTISADKSITTAYLQWSSLKASDTAMYYCARHGTSSDYYGLDVWGQGTTVTVSS
VL: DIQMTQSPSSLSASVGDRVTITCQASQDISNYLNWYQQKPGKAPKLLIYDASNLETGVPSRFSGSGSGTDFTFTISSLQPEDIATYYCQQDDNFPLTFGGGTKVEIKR
notes: Control anti-ST2 antibody

binding result [2]: no binding
binding result [4]: no binding
binding result [5]: no binding
B5: GSK3772847 (antibody STLM208 in CN104411333, prepared in-house) (antibody, human IgG2, kappa, V domains shown)
VH: EVQLLESGGGLVQPGGSLRLSCAASGFTFSIYDMIWVRQAPGKGLEWVSSIRGEGGGTYYADSVKGRFTISRDNSKNTLYLQMNSLRAEDTAVYYCARDPWSTEGSFFVLDYWGQGTLVTVSS
VL: EIVLTQSPATLSLSPGERATLSCRASQSVDDDLAWYQQKPGQAPRLLIYDASNRATGIPARFSGSGSGTDFTLTISSLEPEDFAVYYCQQYITAPLTFGQGTKVEIKR
notes: Control anti-ST2 antibody
